Measured values: patent US20110123533A1

What was measured:
CD133 (prominin) (human) [1] = molecular target: T1, CD133 (prominin) (human) (UniProt O43490); assay: ELISA on plasma membrane fraction of Caco-2 cells; relative equilibrium constant
T1 sequence (glycosylated (the AC133 epitope is known to be glycosylated), looked up): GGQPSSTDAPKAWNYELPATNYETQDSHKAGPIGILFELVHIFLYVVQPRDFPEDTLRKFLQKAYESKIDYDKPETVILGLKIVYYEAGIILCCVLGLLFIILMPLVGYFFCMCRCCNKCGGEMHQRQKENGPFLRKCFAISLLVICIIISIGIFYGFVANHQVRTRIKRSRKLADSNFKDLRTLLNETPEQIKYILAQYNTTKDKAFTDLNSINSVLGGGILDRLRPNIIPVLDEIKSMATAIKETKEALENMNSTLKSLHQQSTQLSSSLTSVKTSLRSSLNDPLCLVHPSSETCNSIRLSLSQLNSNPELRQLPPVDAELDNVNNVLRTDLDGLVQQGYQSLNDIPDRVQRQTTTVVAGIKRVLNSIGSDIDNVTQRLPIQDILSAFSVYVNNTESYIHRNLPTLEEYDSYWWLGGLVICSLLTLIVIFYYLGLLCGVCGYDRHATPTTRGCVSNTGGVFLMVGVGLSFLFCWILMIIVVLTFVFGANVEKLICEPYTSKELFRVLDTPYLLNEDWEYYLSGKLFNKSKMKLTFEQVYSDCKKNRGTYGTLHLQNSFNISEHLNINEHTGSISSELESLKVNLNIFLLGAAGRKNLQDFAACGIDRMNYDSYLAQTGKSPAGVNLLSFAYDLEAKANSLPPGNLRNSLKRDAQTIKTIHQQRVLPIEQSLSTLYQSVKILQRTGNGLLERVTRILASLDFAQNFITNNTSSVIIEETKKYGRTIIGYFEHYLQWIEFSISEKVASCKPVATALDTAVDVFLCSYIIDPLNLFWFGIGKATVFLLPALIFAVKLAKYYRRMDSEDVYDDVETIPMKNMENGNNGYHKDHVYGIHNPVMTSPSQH

CD133 (prominin) (human) [2] = molecular target: T1, CD133 (prominin) (human); assay: ELISA on membrane fraction from Caco-2 cells
CD133 (prominin) (human) [3] = molecular target: T1, CD133 (prominin) (human); assay: ELISA on membrane fraction of Caco-2 cells

scFv-AC133 gave a Kd (CD133 (prominin) (human) [1]) of 155 nM, a fold lower affinity than the monoclonal antibody from which the scFv was derived (CD133 (prominin) (human) [2]) of 3 fold and a fold lower relative binding affinity than anti-CD133 monoclonal antibody (CD133 (prominin) (human) [3]) of 2 fold.

B1: AC133 mouse monoclonal antibody purified from hybridoma (antibody, from another filing, V domains shown)
VH: QVQLQQSGAELVRPGASVKLSCKASGYTFSDFEMHWVKQTPVHGLEWIGDIDPGTGDTAYNLKFKGKATLTTDKSSSTAYMELRSLTSEDSAVYYCTLGAFVYWGQGTLVTVSA
VL: DVVVTQTPLSLPVSFGDQVSISCRSSQSLANSYGNTYLSWYLHKPGQSPQLLIYGISNRFSGVPDRFSGSGSGTDFTLKISTIKPEDLGMYYCLQGTHQPYTFGGGTKLEIKR
Work on B1 yielded a Kd (CD133 (prominin) (human) [1]) of 83 nM.
